# In the DeepSol protein solubility set:
# Test: soluble on expression in E. coli; label from the status in PepcDB or PDB records
row,Sequence,soluble on expression in E. coli
1,MSKKLLIKTWGCQMNEYDSSKMADLLNAANGYELTEEPEEADVLLLNTCSIREKAQEKVFHQLGRWKTLKDKKPGVVIGVGGCVATQEGDHIRERAPYVDVIFGPQTLHRLPEMIKQSQTDDAPVMDISFPEIEKFDRLPEPRAEGATAFVSIMEGCSKYCTYCVVPYTRGEEVSRPMDDVLFEIAQLAEQGVREVNLLGQNVNAYRGPMHDGEICSFAELLRLVASIDGIDRIRFTTSHPLEFTDDIIAVYEDTPELVSFLHLPVQSGSDRILTMMKRPHTAIEYKSIIRKLRKARPDIQISSDFIVGFPGETDKDFQDTMKLIKDVDFDMSFSFIFSPRPGTPAADYPCDIPEQVKKERLYELQQTINAQAMRYSRLMLATEQRVLVEGPSKKNLMELRARTENNRVVNFEGSADLIGQFVDVKITDVFANSLRGELVRTEKDMDLRSVISPTQMMAKTRREDELGVATFTPLEHHHHHH,soluble
2,MSKPIQMERGVKYRDADKMALIPIKNMPTEQKEVLRKPEWMKIKLPADSQRIQDIKAAMRKNNLHSVCEEASCPNLAECFNHGTATFMILGAICTRRCPFCDVAHGRPNAPEAEEPKKLAQTIHDMKLKYVVITSVDRDDLRDGGAQHFADCNREIRALNPHIKIETLVPDFRGRMEVALEALKDNPPDVFNHNLETAPRLYRKVRPGANYKWSLELLRQFKEQHPHVPTKSGLMMGLGETKEEIVEVLKDLRAHGVTMLTLGQYLAPSRHHLPVERYVPPAEFDELKEVALELGFTHAACGPFVRSSYHADLQAKGLEVK,not soluble
3,MSKSEKQQLAPWVEKYRPKVLADIVGNENIVERLKVIGHEGNVPNIVLSGPPGCGKTTSVWALARELLGDKVKEAVLELNASDERGIDVVRHRIKTFAQTKVTLPEGRHKIIILDEADSMTDGAQQALRRTMEMYTKTTRFALACNQSEKIIEPIQSRCALLRYTKLSPVQLLTRVKEVAKAEKVNYDDGGLEAILFTAQGDMRQALNNLQATVNAYELVNKENVLKVCDEPHPDLMIKMLHYCTDRKFFEASKIIHEFHRLGFSSDDIVSTLFRVVKTVELSKNVSEQLRMEYIRQIAMCHMRIVQGLTSKLQLSRLIADLCRVSAAATATSA,not soluble
4,MSKSTRSRRKKKSKGGDRSERKTNKSERKKKGAKSDIGKKKKKNETVSKDQTNTGVSTGAEGVEKKEKEQWSGDETAKKLVASGAFNTSTITSGFKELSNPKPSADMCSIFKNNPKKSRAPDWPIADNKLIKLSHAPGNFICAAKVDVPEFNRTMIVTQIPDVTVSANIEDFWRMIFQEEIVSIVIAVMPLECSVTLQQLFPLLSGTFSNHGKMFLNNKKVDSAVAMTAYTLEVLPDGCSNSLLSTVYHLHNWKQKQGLENVGELVTTVEKVLKTNENTVLMSMNGIGRAGTMLTLFTSMLSVQKSKEVNPKEILIKLRGERSGLVENADQFNTVHRAMALWFKNKCSDEEVQKKVVEFAPNLTTEAVERSSYEYLNSQHFLYPILLESMLHQHQMKQVLLKKVERSMERSKL,not soluble
5,MSKTRMEKLKTLKTIAETLNQGHDIKATLDEVLKELLSLTNLQSGWIFLIEEDGSYTLAADAYLPPALSRKEKVLMCEGECYCLTKFNNGGLRKAANIMNCKRIESAENLHCFDTEGITHHATVPLEDGDRRFGLLNVAAAGKTMFDEEELHLLESVAFQIGTAIQRMRLSEYQQK,not soluble
6,MSKVALIRCESYDYDAVKSAVKRGLDLIGGPHRFAAPNEKILLKPNLLSADPPERCSTTHPSVFKAVAEIFMEAGITNLSYGDSPGIHKPITAARKNGIEKAANELGIKLADFLEGKEVFFENAIQNKKFIIANGVLESDGIISLPKLKTHGFARMTGCVKNQFGCIPGPLKGEFHVRIPSIIDFSKMLVDLNVYLKPRLFVMDGIIAMEGNGPRGGTPRKINAILLSEDPIALDATVCRMINLNPEFVPTIVFGKEAGLGTYDENEIEILGDDIQSFITYDFDVRREPVKPFKPGGAIQFFRNFIVPKPYILKNKCIKCGVCVNACPVKPKAVDWHNGNKKEPPTYIYKRCIRCYCCQELCPESAIHLKVPFIRKFFYNPK,not soluble
7,MSLADERDQLKSIQADIAAKERAVRQKQQQRASLLAQLKKQEEAISEATRKLRETQNTLNQLNKQIDEMNASIAKLEQQKAAQERSLAAQLDAAFRQGEHTGIQLILSGEESQRGQRLQAYFGYLNQARQETIAQLKQTREEVAMQRAELEEKQSEQQTLLYEQRAQQAKLTQALSERKKTLAGLESSIQQGQQQLSELRANESRLRNSIARAEAAAKARAEREAREAQAVRDRQKEATRKGTTYKPTESEKSLMSRTGGLGAPRGQAFWPVRGPTLHRYGEQLQGELRWKGMVIGASEGTEVKAIADGRVILADWLQGYGLVVVVEHGKGDMSLYGYNQSALVSVGSQVRAGQPIALVGSSGGQGRPSLYFEIRRQGQAVNPQPWLGREGHHHHHH,soluble
8,MSLADQAIHWLFPTPVLQADLTPTADVALAMDQQLALFDREVFSHPEFSNRNNLTGDLLGKAGLDQLHRLEAFQWLNQQLAVHVDAFLRELLGPNHALEVHIQKAWPVVCARQGGTIEPHTHRNAQLSAVFYVRTEPDNPSGELEFQAADDYFSHVMAIPYRDAAVSGGVFAPQQHRLLLFPSDLRHQVTPYEGASPRYSVSYDLAITTAPGHGREMRMPHPMDWVPLCKPGPAEGHHHHHH,soluble
9,MSLAEKIKVLIVDDQVTSRLLLGDALQQLGFKQITAAGDGEQGMKIMAQNPHHLVISDFNMPKMDGLGLLQAVRANPATKKAAFIILTAQGDRALVQKAAALGANNVLAKPFTIEKMKAAIEAVFGALK,soluble
10,MSLAEPKWLQDLKEEDYIKEDFDATGKSRYTVEGIDKNDPDWLNKAAKKVHAAEGDDYVKLDAGLLTVNQINWMLRRAFGELTYVDDNNQFLWYNRPTDPNKKMLAKRTPDQVGDTMGAVHPDIRNVIPEAKKVIYALRNKIDGHDEVKMPVPNGNRHKLILHDYKRIEDDEGNYVGTYEWVQDIYPFVKYFCETTGQKLVDDPDATTGATYKRDEVDTGTGASKHEEHVEKKQEETDTSSGASEYEGHHHHHH,soluble
11,MSLAERKPIESWLTDMDGVLIHEGVPIPGADAFIKKLRESGKPFLVLTNNSIYTPRDLHARLRRMGLDVPVENIWTSALATAQFLGDQRPDGTAYVIGEAGLTTALHDIGYVLTDHEPDYVVLGETRTYSFEAMTQAVRLINKGARFICTNPDETGPSAEGPLPATGAVAALITKATGKKPYFAGKPNPLMMRTGLNTLGAHSETSAMIGDRMDTDVLAGMEAGMQTFLVLTGLTGPDQVENYPYRPSKVVDSIADLVDWIEGHHHHHH,soluble
12,MSLAFNVAFRLDAGAEIGLGHLMRCLAIADRLRAAGAECHFLCHDLPAHLLPLLHAHHHHSLTTQDDAGPLPSLQPDWLVFDHYQIDHVVEQELAVHCDQLLVIDDLADRPHYCQLLLDQGPLRTAADYQPLIPADCRLLLGTDYALLRPAYRQLARQQTSQWQGGLICFGGADPAGACLTTLNSLACLPWPRTIQWTLVAGGANPFWPELEQRVAELPELKITLLRQSDQMAQLMNQHDFTIGAAGGMTWERACLGLPTLAVPIVDNQEGHHHHHH,not soluble
13,MSLAGGYVIDTTENTFQAMVQTSATFPILLFLWVPTDDRLFAMARALGDAVNKLNGQIQLSRIDIASNPSIAQAFQIQGAPALFALIGGRPMPILQGLPSDEELQQITDVVVPKLIAAAQQAGVTGTAPYSGDPDSDAANSASAGSVQDQVPPEHQEAYMLAQQGDYAGAAAAYEKVLEADPNDTRAARERAKALLLARSANADVRVVRAAAADKPDDVDAQLAVADIDMIGGQIQDAFDRLLDFVAAGHKADIEPVRQRLLEYFTIPEPTDERLKRARRRLATLMYEGHHHHHH,soluble
14,MSLAGTFAIAPTPFHDDGKIDDVSIDRLTDFYAEVGCEGVTVLGILGEAPKLDAAEAEAVATRFIKRAKSMQVIVGVSAPGFAAMRRLARLSMDAGAAGVMIAPPPSLRTDEQITTYFRQATEAIGDDVPWVLQDYPLTLSVVMTPKVIRQIVMDSASCVMLKHEDWPGLEKITTLRGFQKDGSLRPLSILCGNGGLFLDFEMERGADGAMTGYCFPDMLVDVVKLSKAGQRDLAHNLFDAHLPLIRYEHQQGVGLSVRKYVLKKRGLLSSSAQRKPGASLTDTAREEVDYLLSRLARVEGHHHHHH,not soluble
15,MSLAGVGGRPPPSVGSVVVADTTMFTDAKLREVLGARSLEEAARIMARILARASRMGLTVYITPSVRAEIERFMLGNGVHPTTIARLMAWVRVKPPTTHELRLPAAMFRRYVETVRARLDKGLRVAEDHVRRALRSRDEEGDIVRSLREKYREYTRKGMLDSVEDVDTLLLALELGAAIVTSDEGLRRAAEDLGLTVLTPVELLEYILALEEEVKSVEEEGHHHHHH,not soluble
16,MSLAKPTDIRIRDVRISAEHINYRTPIKFGGRVVNDVTLLNVALDVETADGRRGSGFGSMPMGNVWAWPTSTTSGDATLQAMVDIGTAIAEAAPQLDLSGHPLELTAAAHSQYGSIASTIAHKANITEAVPKLATLVAASPVEAAIHDAYGKALGLNSYNVLGADFANTDLASYLSPEFAGEYLDRYTLRTPQPQMPLYHLIGALDPLDQDELQNPVGDGLPETLGDWITADGLTHLKIKLNGDNLDWDVARVAKIDAVAIDAQAKRGCKAWQYSLDFNERCPNVQYILDFLAKLSESSPEALDRVQYIEQPTSRDLRANPENRMHAAAKIKPVVIDESLIDYESLLLAREQGYSGVALKACKGQSEALLMGAAAQKFGMFLCVQDLTCPGASFLHSASLAARMPTIAAIEGNGRQYCPAGNAEWAKRYPSMFDITQGYVGTAVLTEPGLGYEGHHHHHH,not soluble
17,MSLAKSNDKTVTMYSIGPRLKAFSDWLLKTMAAGNLGVIFPAASREYAPLVEELWRDAAIQATYKRRSELGLLPSVANYFLERAIDVLTPDYEPSDVDILYAEGVTSSSGLACLDFSFPQTASEENLDPSDHHDSLLRYQLIRVPSRGLGENCKWIDMFEDVGMVVFVVSMSDYDQVSEDGTNKMLLTKKLFESIITHPIFENMDFLLILNKYDLLEEKVERVPLARCEWFQDFNPVVSRHRGSNNGNPTLGQLAFHFMAVKFKRFYSSLTGKKLFVSSSKSLDPNSVDSSLKLAMEILKWSEERTNICMSEYSMYSTEGHHHHHH,not soluble
18,MSLAKYFDPHIHMVSRTTDDYQNMAAAGITGVIEPAFWQGQARTSVGSFIDYFDTLLGWERFRASMFGIHHFCTIGLNPKEANDLSVANEVLEILPRYLVKDGVVAVGEIGYDDITPEEDRFLAAQLELARQFNLPVLVHTPHRDKIGGTKRTLAVIREVGIAENLVIIDHLNELTLPLVLDSDCWRGHSIYPNTKMSEQRMVALLQEYGSEKMVVNSAADWGISDPLKVPKTGQAMLAAGFSEAQVEQVLFHNPVDFFAQSGQLDKQLVSTEGHHHHHH,not soluble
19,MSLALIVHKYGGTSVGSPERIKNVAKRVAKARAEGHDIVVVVSAMSGETNRLVALAHEMQEHPDPRELDVVLATGEQVTIGLLAMALKDIGVDAKSYTGWQVALKTDTAHTKARIESIDDEKMRADLTAGKVVIVAGFQGISSEGDISTLGRGGSDTSAVALAAALKADECQIYTDVDGVYTTDPRVVPEARRMDTVTFEEMIELASLGSKVLQIRSVEFAGKYKVRLRVLSSLQDGGNGTLITFEEDDNMERAAVTGIAFDKNQARINVRGVPDKPGVAYQILGAVADANIEVDMIIQNVGSEGTTDFSFTVPRGDYKQTLEILSERQDSIGAASIDGDDTVCKVSAVGLGMRSHVGVAAKIFRTLAEEGINIQMISTSEIKVSVLIDEKYMELATRVLHKAFNLGEGHHHHHH,soluble
